According to patent publication US20240409645A1 (DUALYX, published 2024):
Changes are numbered by the printed parent chain.

B1: 35-MP07G01 (VHH)
VHH: QVQLQESGGGLVQGGGSLRLSCAASGGIFSSYAMGWFRQAPGKEREFVAAISRSGRSTNYADSVKGRFTISRDNAKSTVYLQMNSLKPEETAVYYCAAGRYYNSAYDPSPGDFGSWGHGTQVTVSS
notes: VHH in periplasmic extract; also called FJ1427_P035MP07G01; clone nr
B2: FJ1427_P035MP03E10 (VHH)
VHH: EVQLVESGGGLVQPGGSLRLSCAASGFTFRNYAMSWVRQAPGKGLEWVGGITGEGLGTIYQDSVEGRFTISRNNAKNTLYLQMNSLRSEDTAVYYCTKMASGTLFRDKPYEYTSRGQGTQVTVSS
notes: soluble VHH in periplasmic extract; also called clone nr
B3: FJ1427 P035MP03C12 (VHH)
VHH: QVQLVESGGGLVQAGGSLRLSCAASGRAFSTYSMGWFRQTPGKEREFVAIISESGGIIDYGDSVKGRFTLSRDNAKNTVSLQMSSLQPEDTAVYYCAAARDWFARTAYQYDYWGQGTQVTVSA
notes: as for B2
B4: 29-MP04H02 (VHH)
VHH: QVQLVESGGGLVQAGGSLRLACVASGLTFDNYYMGWFRQAPGKEREFVAGIIWNGDHTAYADSIKGRFTISRDNAKNTAYLRMNSLKPEDTAVYYCAATFWIERATTPDIGQYAYWGQGTQVTVSS
notes: VHH in periplasmic extract; also called FJ1427_P035MP04H02; clone nr
B5: FJ1427 P035MP03D11 (VHH)
VHH: QVQLVESGGGLVQAGGSLRLSCAASGRTFSTTDVGWFRQAPGKEREFVAAITWSSHSTLYADSVEGRFTVTRENAKNTVYLQMNSLKPEDTAVYYCAAVRRGWAVVRTEGAYDFWGQGTQVTVSA
notes: as for B2
B6: 36-MP07F02 (VHH)
VHH: QVQLVESGGGLVQAGGSLRLSCAASGRTLSRYAMGWFRQAPGSEREFVAASSWGGDTFYADSVEGRFTFSRDNAKNAVYLQMNSLQPEDTAAYYCAAAPTSFPTTAYSSSNSYAYWGQGTQVTVSS
notes: VHH in periplasmic extract; also called FJ1427_P035MP07F02; clone nr; 590
B7: FJ1427_P035MP04B01 (VHH)
VHH: B6 VHH with Q1E, G16A, S43K, F58Y, A92V, A97G, P103A
notes: VHH in periplasmic extract; also called clone nr; 290
B8: FJ1427 P035MP06G01 (VHH)
VHH: EVQLVESGGGLVQAGDSLRLSCVVSGRGFSTYTMGWFRQAPGKEREFVAAITWSTGRTSYADSVKGRFTISRENAENTVYLQMNSLELEDTAVYYCATDQVLWTTRPRDMRYWGQGTQVTVSF
notes: as for B2
B9: FJ1427 P035MP03F11 (VHH)
VHH: QVQLVESGGGLAQAGGSLRLSCAASGRTFSQDAKAWFRQAPGKEREFVAAITWSGRDTDYADSVKGRFTIARDNAKNTVYLQMDSLKPEDTAVYYCAVYPQGTIGPYFRSSNHYDYWGQGTQVTVSS
notes: as for B2
B10: 27-MP04G01 (VHH)
VHH: QVQLVESGGGLVQAGGSLTLSCAAPGRTFGTDVVGWFRQAPGKEREFVASISRSGDGIYYDDSVKGRFTISRNNAWNTVNLQMNSLKVEDTAVYYCAAGDGWSTYDYWGQGTQVTVSS
notes: VHH in periplasmic extract; also called FJ1427_P035MP04G01; clone nr
B11: FJ1427_P035MP04C01 (VHH)
VHH: B10 VHH with P25S, G30S, S85N
notes: VHH in periplasmic extract; also called clone nr
B12: FJ1427 P035MP03H10 (VHH)
VHH: QVQLVESGGGLVQAGGSLRLSCAASGRTFSTTEMGWFRQAPGKEREFVAAITWTGRGTMYAESVEGRFTISRENAKNMVYLQMNSLKPEDTAIYYCAAARRGRAAVRSEGGYDFWGQGTQVTVSS
notes: as for B2
B13: FJ1427_P035MP03G10 (VHH)
VHH: QVQLVESGGGLVQAGGSLRLSCAASGRSYAMGWFRQAPGKEREFVAAISWSASSTYYSESVKGRFTISRENAKNTVYLQMNSLKPEDTAVYYCAVRASPFVAGSYDPSDDPADYGSWGQGTQVIVSS
notes: as for B2

Legend:
[1] = target: T1, human IL-2Rγ (common cytokine receptor γ-chain) (human, UniProt P31785 23-262, limits assumed); experiment: PE binding ELISA, periplasmic extract on coated protein
T1 construct: Recombinant protein coated on the plate or immobilised on a CM5 chip; also called hu IL-2R; CD132
T1 sequence: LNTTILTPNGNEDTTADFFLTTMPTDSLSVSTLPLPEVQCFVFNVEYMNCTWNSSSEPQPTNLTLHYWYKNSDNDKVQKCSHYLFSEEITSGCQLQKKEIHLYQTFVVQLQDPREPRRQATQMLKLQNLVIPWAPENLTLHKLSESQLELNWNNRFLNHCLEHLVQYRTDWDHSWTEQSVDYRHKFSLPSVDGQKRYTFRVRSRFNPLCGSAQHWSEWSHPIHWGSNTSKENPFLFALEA
Protocol: In a binding ELISA, human or mouse IL-2Rα, IL-2Rβ and IL-2Rγ proteins were coated directly on maxisorp microtiter plates overnight at 4° C. Free binding sites were blocked using 4% Marvel in PBS for 1 hour. Next, 1:5 dilution of P.E. in 1% Marvel/PBS were added to wells and incubated for 1 hour. […] Binding specificity was determined based on O.D. at 450 nm values compared to negative controls.

human IL-2Rβ [2] = target: T2, human IL-2Rβ (human, UniProt P14784 27-240, limits assumed); experiment: P.E. binding ELISA on coated protein
T2 construct: Recombinant protein, coated (ELISA) or immobilised on CM5 (SPR); also called hu IL-2R; interleukin 2 receptor β-chain
T2 sequence: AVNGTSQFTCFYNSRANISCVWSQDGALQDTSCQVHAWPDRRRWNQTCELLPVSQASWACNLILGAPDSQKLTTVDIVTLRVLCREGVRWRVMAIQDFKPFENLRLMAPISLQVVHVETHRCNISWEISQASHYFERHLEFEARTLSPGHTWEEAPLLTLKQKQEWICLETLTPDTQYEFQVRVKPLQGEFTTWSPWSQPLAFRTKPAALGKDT
Outline: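 Read-out: OD at 450 nm, specificity called versus negative controls. Receptor chains (human or mouse IL-2Rα, β, γ) were coated directly overnight at 4° C; 4% Marvel/PBS block 1 h; P.E. at 1:5 dilution in 1% Marvel/PBS incubated 1 h.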

human IL-2Rβ [3] = target: T2, human IL-2Rβ; experiment: SPR (Biacore), P.E. off-rate ranking
[4] = target: T1, human IL-2Rγ (common cytokine receptor …); experiment: SPR off-rate ranking, periplasmic extract on immobilised protein
Protocol: SPR was performed to determine dissociation rates using Biacore 3000 instrument (GE Healthcare). Briefly, human and mouse IL-2R proteins were immobilized on carboxylmethyl dextran sensor chip (CM5) at approximately 2500 RUs using amine coupling in acetate buffer (GE Healthcare). The VHH-containing P.E. were loaded with a flow rate of 30 uL/min and the off-rates were measured over a 120s period.

Binder | OD (PE binding ELISA) [1] | P.E. binding ELISA OD (human IL-2Rβ [2]) | koff (human IL-2Rβ [3]) | koff [4]
B1 | 0.134 OD450 nm | – | – | –
B2 | – | 0.398 OD450 nm | 0.00207 s⁻¹ | –
B3 | – | 0.321 OD450 nm | 0.0014 s⁻¹ | –
B4 | 0.157 OD450 nm | – | – | 0.00625 s⁻¹
B5 | – | 0.118 OD450 nm | 0.00102 s⁻¹ | –
B6 | 0.896 OD450 nm | – | – | 0.00331 s⁻¹
B7 | 0.873 OD450 nm | – | – | 0.00327 s⁻¹
B8 | – | 0.557 OD450 nm | 0.000143 s⁻¹ | –
B9 | – | 0.474 OD450 nm | 0.000277 s⁻¹ | –
B10 | 0.362 OD450 nm | – | – | 0.00131 s⁻¹
B11 | 0.264 OD450 nm | – | – | 0.00124 s⁻¹
B12 | – | 0.578 OD450 nm | 0.00109 s⁻¹ | –
B13 | – | 0.26 OD450 nm | 0.00165 s⁻¹ | –
